B1: Azoarcus group I ribozyme (parent)
chain: GUGCCUUGCGCCGGGAAACCACGCAAGGGAUGGUGUCAAAUUCGGCGAAACCUAAGCGCCCGCCCGGGCGUAUGGCAACGCCGAGCCAAGCUUCGGCGCCUGCGCCGAUGAAGGUGUAGAGACUAGACGGCACCCACCUAAGGCAAACGCUAUGGUGAAGGCAUAGUCCAGGGAGUGGCGAAAGUCACACAAACCGG

Variants of: B1
Test: reverse-splicing fitness (ratio to wild type); higher = more active; in vitro selection; Mg2+ level not given
How it was run: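 An in vitro group I ribozyme library with randomized positions was T7-transcribed and gel-purified. In triplicate, 10 pmol RNA in EPPS pH 7.5 was reacted with 50 pmoles of a 30-nt RNA substrate for 1 h at 37 °C across several added MgCl2 levels (1–48 mM), then stopped with EDTA. Products were reverse transcribed from a substrate-complementary primer, PCR-amplified and sequenced (HiSeq 4000). Fitness is a variant's read proportion after selection over that before, normalised to wild type.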
For GUGCCUUGCGCCGGGAAACCACGCAAGGGAUGGUGUCAAAUUCGGCGAAACCUAAGCGCCCGCCCGGGCGUAUGGCAACGCCGAGCCAAGCUUCGGCGCCUGCGCCGAUGUAGGUGUAGAGACUAGACGGCACCCACCUAAGGCGAACGCUAUGGUGAAGGCAUAGUCUAGGGAGUGGCGAAAGUCACACAAACCGG [A111U A145G C169U], the reverse-splicing fitness was 0.111.
For GUGCCUUGCGCCGGGAAACCACGCAAGGGAUGGUGUCAAAUUCGGCGAAACCUAAGCGCCCGCCCGGGCGUAUGGCAACGCCGAGCCAAGCUUCGGCGCCUGCGCCGAUGUAGGUGUAGAGACUAGACGGCACCCACCUAAGGCGAACGCUAUGGUGAAGGCAUAGUCUAGGGAGAGGCGAAAGUCACACAAACCGG [A111U A145G C169U U176A], the reverse-splicing fitness was 0.0265.
In the case of GUGCCUUGCGCCGGGAAACCACGCAAGGGAUGGUGUCAAAUUCGGCGAAACCUAAGCGCCCGCCCGGGCGUAUGGCAACGCCGAGCCAAGCUUCGGCGCCUGCGCCGAUGUAGGUGUAGAGACUAGACGGCACCCACCUAAGGCGAACGCUAUGGUGAAGGCAUAGUCUAGGGAGCGGCGAAAGUCACACAAACCGG [A111U A145G C169U U176C], the reverse-splicing fitness is reported as 0.0327.
For GUGCCUUGCGCCGGGAAACCACGCAAGGGAUGGUGUCAAAUUCGGCGAAACCUAAGCGCCCGCCCGGGCGUAUGGCAACGCCGAGCCAAGCUUCGGCGCCUGCGCCGAUGUAGGUGUAGAGACUAGACGGCACCCACCUAAGGCGAACGCUAUGGUGAAGGCAUAGUCUAGGGAGGGGCGAAAGUCACACAAACCGG [A111U A145G C169U U176G], the reverse-splicing fitness was 0.00581.
In the case of GUGCCUUGCGCCGGGAAACCACGCAAGGGAUGGUGUCAAAUUCGGCGAAACCUAAGCGCCCGCCCGGGCGUAUGGCAACGCCGAGCCAAGCUUCGGCGCCUGCGCCGAUGUAGGUGUAGAGACUAGACGGCACCCACCUAAGGCGAACGCUAUGGUGAAGGCAUAGUCCAGGGAGAGGCGAAAGUCACACAAACCGG [A111U A145G U176A], the reverse-splicing fitness is reported as 0.701.
For GUGCCUUGCGCCGGGAAACCACGCAAGGGAUGGUGUCAAAUUCGGCGAAACCUAAGCGCCCGCCCGGGCGUAUGGCAACGCCGAGCCAAGCUUCGGCGCCUGCGCCGAUGUAGGUGUAGAGACUAGACGGCACCCACCUAAGGCGAACGCUAUGGUGAAGGCAUAGUCCAGGGAGCGGCGAAAGUCACACAAACCGG [A111U A145G U176C], the reverse-splicing fitness was 0.721.
Variant GUGCCUUGCGCCGGGAAACCACGCAAGGGAUGGUGUCAAAUUCGGCGAAACCUAAGCGCCCGCCCGGGCGUAUGGCAACGCCGAGCCAAGCUUCGGCGCCUGCGCCGAUGUAGGUGUAGAGACUAGACGGCACCCACCUAAGGCGAACGCUAUGGUGAAGGCAUAGUCCAGGGAGGGGCGAAAGUCACACAAACCGG [A111U A145G U176G] has a reverse-splicing fitness of 0.267.
With GUGCCUUGCGCCGGGAAACCACGCAAGGGAUGGUGUCAAAUUCGGCGAAACCUAAGCGCCCGCCCGGGCGUAUGGCAACGCCGAGCCAAGCUUCGGCGCCUGCGCCGAUGUAGGUGUAGAGACUAGACGGCACCCACCUAAGGCUAACGCUAUGGUGAAGGCAUAGUCCAGGGAGUGGCGAAAGUCACACAAACCGG [A111U A145U] the reverse-splicing fitness was 0.924.
Variant GUGCCUUGCGCCGGGAAACCACGCAAGGGAUGGUGUCAAAUUCGGCGAAACCUAAGCGCCCGCCCGGGCGUAUGGCAACGCCGAGCCAAGCUUCGGCGCCUGCGCCGAUGUAGGUGUAGAGACUAGACGGCACCCACCUAAGGCUAACGAUAUGGUGAAGGCAUAGUCCAGGGAGUGGCGAAAGUCACACAAACCGG [A111U A145U C150A] has a reverse-splicing fitness of 0.379.
Variant GUGCCUUGCGCCGGGAAACCACGCAAGGGAUGGUGUCAAAUUCGGCGAAACCUAAGCGCCCGCCCGGGCGUAUGGCAACGCCGAGCCAAGCUUCGGCGCCUGCGCCGAUGUAGGUGUAGAGACUAGACGGCACCCACCUAAGGCUAACGAUAUGGUGAAGGCAUAGUCAAGGGAGUGGCGAAAGUCACACAAACCGG [A111U A145U C150A C169A] has a reverse-splicing fitness of 0.01.
In the case of GUGCCUUGCGCCGGGAAACCACGCAAGGGAUGGUGUCAAAUUCGGCGAAACCUAAGCGCCCGCCCGGGCGUAUGGCAACGCCGAGCCAAGCUUCGGCGCCUGCGCCGAUGUAGGUGUAGAGACUAGACGGCACCCACCUAAGGCUAACGAUAUGGUGAAGGCAUAGUCAAGGGAGAGGCGAAAGUCACACAAACCGG [A111U A145U C150A C169A U176A], the reverse-splicing fitness is reported as 0.0131.
GUGCCUUGCGCCGGGAAACCACGCAAGGGAUGGUGUCAAAUUCGGCGAAACCUAAGCGCCCGCCCGGGCGUAUGGCAACGCCGAGCCAAGCUUCGGCGCCUGCGCCGAUGUAGGUGUAGAGACUAGACGGCACCCACCUAAGGCUAACGAUAUGGUGAAGGCAUAGUCAAGGGAGCGGCGAAAGUCACACAAACCGG [A111U A145U C150A C169A U176C] gave a reverse-splicing fitness of 0.00995.
In the case of GUGCCUUGCGCCGGGAAACCACGCAAGGGAUGGUGUCAAAUUCGGCGAAACCUAAGCGCCCGCCCGGGCGUAUGGCAACGCCGAGCCAAGCUUCGGCGCCUGCGCCGAUGUAGGUGUAGAGACUAGACGGCACCCACCUAAGGCUAACGAUAUGGUGAAGGCAUAGUCAAGGGAGGGGCGAAAGUCACACAAACCGG [A111U A145U C150A C169A U176G], the reverse-splicing fitness is reported as 0.00582.
Variant GUGCCUUGCGCCGGGAAACCACGCAAGGGAUGGUGUCAAAUUCGGCGAAACCUAAGCGCCCGCCCGGGCGUAUGGCAACGCCGAGCCAAGCUUCGGCGCCUGCGCCGAUGUAGGUGUAGAGACUAGACGGCACCCACCUAAGGCUAACGAUAUGGUGAAGGCAUAGUCGAGGGAGUGGCGAAAGUCACACAAACCGG [A111U A145U C150A C169G] has a reverse-splicing fitness of 0.0109.
For GUGCCUUGCGCCGGGAAACCACGCAAGGGAUGGUGUCAAAUUCGGCGAAACCUAAGCGCCCGCCCGGGCGUAUGGCAACGCCGAGCCAAGCUUCGGCGCCUGCGCCGAUGUAGGUGUAGAGACUAGACGGCACCCACCUAAGGCUAACGAUAUGGUGAAGGCAUAGUCGAGGGAGAGGCGAAAGUCACACAAACCGG [A111U A145U C150A C169G U176A], the reverse-splicing fitness was 0.0129.

Reference: the RNAGym collection of RNA variant scans (doi:10.1093/molbev/msab373)
